Reference: patent publication US20220267400

How the values were obtained:
[1] = molecular target: T1, Construct A (mIL2- 2x(SG4) - MMPcs1 - 2x(G4S) - IL2Ralpha - 6His)
T1 chain: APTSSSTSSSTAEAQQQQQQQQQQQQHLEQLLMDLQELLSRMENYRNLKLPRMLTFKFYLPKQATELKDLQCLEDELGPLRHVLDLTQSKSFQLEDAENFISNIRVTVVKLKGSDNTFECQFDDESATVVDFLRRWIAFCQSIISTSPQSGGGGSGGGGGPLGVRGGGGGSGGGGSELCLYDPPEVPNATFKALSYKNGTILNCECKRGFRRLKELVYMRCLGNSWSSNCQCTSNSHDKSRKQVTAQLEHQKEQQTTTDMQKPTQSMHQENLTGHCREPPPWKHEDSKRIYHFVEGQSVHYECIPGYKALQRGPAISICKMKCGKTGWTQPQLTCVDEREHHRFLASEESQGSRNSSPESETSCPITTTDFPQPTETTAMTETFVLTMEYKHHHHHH

[2] = molecular target: T2, Construct B (m IL2-2x(SG4) - MMPcs1 - 2x (G4S) - IL2Ralpha - mIgG1 Fc)
T2 chain: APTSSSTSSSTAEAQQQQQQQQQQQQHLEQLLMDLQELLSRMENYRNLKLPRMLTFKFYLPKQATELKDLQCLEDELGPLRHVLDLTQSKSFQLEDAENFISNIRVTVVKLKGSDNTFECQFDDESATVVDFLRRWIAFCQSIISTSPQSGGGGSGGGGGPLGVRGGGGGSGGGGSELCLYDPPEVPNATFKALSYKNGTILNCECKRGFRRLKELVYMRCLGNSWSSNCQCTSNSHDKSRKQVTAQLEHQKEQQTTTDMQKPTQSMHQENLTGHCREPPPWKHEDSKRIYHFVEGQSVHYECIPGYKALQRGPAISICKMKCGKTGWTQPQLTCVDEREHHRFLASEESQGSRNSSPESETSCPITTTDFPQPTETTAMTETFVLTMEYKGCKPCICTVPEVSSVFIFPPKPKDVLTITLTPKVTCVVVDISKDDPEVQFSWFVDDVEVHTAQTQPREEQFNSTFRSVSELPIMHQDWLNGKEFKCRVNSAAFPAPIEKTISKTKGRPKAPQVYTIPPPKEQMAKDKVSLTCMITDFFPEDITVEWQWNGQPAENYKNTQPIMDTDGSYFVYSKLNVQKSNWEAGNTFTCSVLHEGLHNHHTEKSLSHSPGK

[3] = molecular target: Construct E (Hu IL2(C125S)- 2x(SG4) - MMPcs1 - 2x(G4S) - IL2Ralpha - hu IgG1 Fc - 6xHIS)
Construct E (Hu IL2(C125S)- 2x(SG4) - MMPcs1 - 2x(G4S) - IL2Ralpha - hu IgG1 Fc - 6xHIS), sequence (chain, as listed by the source C125S): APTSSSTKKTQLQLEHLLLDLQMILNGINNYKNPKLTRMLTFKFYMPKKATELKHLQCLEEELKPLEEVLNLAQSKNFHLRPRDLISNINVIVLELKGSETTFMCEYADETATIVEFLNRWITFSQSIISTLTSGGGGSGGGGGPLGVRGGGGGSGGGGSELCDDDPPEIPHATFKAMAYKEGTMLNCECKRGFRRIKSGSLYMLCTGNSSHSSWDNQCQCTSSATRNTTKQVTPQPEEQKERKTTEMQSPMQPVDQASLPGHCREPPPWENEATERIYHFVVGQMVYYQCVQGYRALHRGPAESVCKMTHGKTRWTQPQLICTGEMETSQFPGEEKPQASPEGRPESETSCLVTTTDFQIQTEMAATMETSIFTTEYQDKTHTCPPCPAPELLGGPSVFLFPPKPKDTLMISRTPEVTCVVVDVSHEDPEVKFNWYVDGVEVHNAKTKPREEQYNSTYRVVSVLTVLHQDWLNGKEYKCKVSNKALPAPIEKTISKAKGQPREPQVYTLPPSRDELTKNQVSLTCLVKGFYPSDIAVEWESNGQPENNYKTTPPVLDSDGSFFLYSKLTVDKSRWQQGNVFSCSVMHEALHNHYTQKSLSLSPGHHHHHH

B1: Recombinant MMP9 (R&D Systems), activated with p-aminophenylmercuric acetate (protein)
chain: FQTFKGLKWDHHNITYWIQNYSEDLPRDMIDDAFARAFAVWGEVAPLTFTRVYGPEADIVIQFGVAEHGDGYPFDGKDGLLAHAFPPGAGVQGDAHFDDDELWSLGKGVVIPTYYGNSNGAPCHFPFTFEGRSYSACTTDGRNDGTPWCSTTADYDKDGKFGFCPSERLYTEHGNGEGKPCVFPFIFEGRSYSACTTKGRSDGYRWCATTANYDQDKLYGFCPTRVDATVVGGNSAGELCVFPFVFLGKQYSSCTSDGRRDGRLWCATTSNFDTDKKWGFCPDQGYSLFLVAAHEFGHALGLDHSSVPEALMYPLYSYLEGFPLNKDDIDGIQYLYGRGSKPDPRPPATTTTEPQPTAPPTMCPTIPPTAYPTVGPTVGPTGAPSPGPTSSPSPGPTGAPSPGPTAPPTAGSSEASTESLSPADNPCNVDVFDAIAEIQGALHFFKDGWYWKFLNHRGSPLQGPFLTARTWPALPATLDSAFEDPQTKRVFFFSGRQMWVYTGKTVLGPRSLDKLGLGPEVTHVSGLLPRRLGKALLFSKGRVWRFDLKSQKVDPQSVIRVDKEFSGVPWNSHDIFQYQDKAYFCHGKFFWRVSFQNEVNKVDHEVNQVDDVGYVTYDLLQCP
cleavage of the fusion protein, SDS-PAGE and Western blot [1]: essentially complete cleavage of the fusion proteins by MMP9 protease was seen after overnight incubation | cleavage of the fusion protein, Western blot [1]: Cleavage product was detectable at 1 hour, and the full-length cytokine prodrug was substantially undetectable at the overnight +MMP time point | cleavage of the fusion protein, SDS-PAGE and Western blot [2]: essentially complete cleavage of the fusion proteins by MMP9 protease was seen after overnight incubation | cleavage of the fusion protein, Western blot [2]: Cleavage product was detectable at 1 hour, and the full-length cytokine prodrug gave only a faint band at the 20 hour +MMP time point | cleavage of the fusion protein, SDS-PAGE and Western blot [3]: essentially complete cleavage of the fusion proteins by MMP9 protease was seen after overnight incubation | cleavage of the fusion protein, Western blot [3]: Cleavage product was detectable at 1 hour, and the full-length cytokine prodrug gave essentially no band at the 22 hour +MMP time point
